Several values for one entry are separate records, joined by “and”; a condition that tells them apart may be missing. Identical values can stand only once.
Assays:
[1] = system: rats with acute myocardial infarction caused by left coronary artery ligation; experiment: Echocardiography, rat acute myocardial infarction, long-term subcutaneous NRG at different frequencies (Example 2); assay type: in vivo, Wistar rats
Procedure: (§1) Established in the same way as the rat model of heart failure caused by coronary artery ligation in 5.1, Embodiment 1
All the experimental animals were randomly divided into groups upon coronary artery ligation. According to post-ligation survival, the rats were randomly divided into 4 groups by body weight: the excipient group (control group), the NRG30 μg/kgDay group, the NRG30 μg/kg/BlW group and the NRG30 μgkgDay*7+QW group. Administration began on the day following the animal model establishment of myocardial infarction. For the first three groups and for the fourth group on the first 7 days, the rats were given subcutaneous injection 3 times a day and weighed once a day. They took medicine by weight and the dose was 30 μg/kg/day. For the fourth group in the last four weeks, the rats were injected with NRG on one day per week, and the daily dose was 30 μg/kg.
(§2) After being anesthetized with 4% isoflurane, the rats were fixed onto the operating board in the left lateral recumbent position. The head of the rats was fixed in the breathing mask of the gaseous anesthesia machine, with isoflurane used for maintenance of anesthesia. After chest hair removal, the skin was disinfected with 75% alcohol and coated with a coupling agent. An echocardiography probe was used to detect any echo signal from the left ventricle of the rats. The left ventricular end-diastolic diameter and left ventricular end-systolic diameter (D) were measured. The left ventricular end-diastolic volume (EDV) and end-systolic volume (ESV) were calculated. Also, the ejection fraction (EF) value was found, EF−(EDV−ESV)/EDV*100%. The cardiac function of the rats was performed by echocardiography in the 1st, 2nd, 3rd and 5th weeks after the occurrence of myocardial infarction.

[2] = system: rats with acute myocardial infarction caused by left coronary artery ligation; experiment: Echocardiography, rat acute myocardial infarction, long-term subcutaneous NRG followed by withdrawal through dose reduction (Example 4); assay type: in vivo, Wistar rats
Procedure: as §1
The rats were randomly divided into groups and medicated upon coronary artery ligation. According to post-ligation survival, the rats were randomly divided into 2 groups by body weight. Subcutaneous injection was given 3 times a day, and the animals were weighed once a day. The animals were medicated by weight. Echocardiography was performed on day 10 after modeling. All the animals underwent echocardiography every 10 days, underwent echocardiography every week after dose reduction, and underwent echocardiography every 2 weeks after complete withdrawal. All the animals were medicated continuously till day 60, and then a three-week dose-reduction withdrawal plan was implemented: The administered dose was reduced to 15 μg/kg, 7.5 μg/kg and 3.75 μg/kg in the first, second and third week, respectively. The drug was completely withdrawn after three-week dose reduction to observe the clinical symptoms.
as §2, with “The” for “Also, the”, “EP=(EDV−ESV)/EDV*100%.” for “EF−(EDV−ESV)/EDV*100%. The cardiac function of the rats was performed by echocardiography in the 1st, 2nd, 3rd and 5th weeks after the occurrence of myocardial infarction.”
All experimental data were expressed in ±SD. GraphPad Prism6 was used for one-way ANOVA analysis. P<0.05 indicates a significant inter-group difference; P<0.01 indicates an extremely significant inter-group difference.

[3] = 30 μg/kg/Day sc, after 35 days of continuous administration
[4] = DAY 8, 30 μg/kg BIW sc, 3 times a day, 2 days a week × 5 weeks
[5] = DAY 8, 30 μg/kg Day*7 + QW sc, 3 times a day × 7 days, then 1 day/week × 4 weeks
[6] = DAY 8, 30 μg/kg/Day sc, 3 times a day × 35 days
[7] = DAY 15, 30 μg/kg BIW sc, 3 times a day, 2 days a week × 5 weeks
[8] = DAY 15, 30 μg/kg Day*7 + QW sc, 3 times a day × 7 days, then 1 day/week × 4 weeks
[9] = DAY 15, 30 μg/kg/Day sc, 3 times a day × 35 days
[10] = DAY 22, 30 μg/kg BIW sc, 3 times a day, 2 days a week × 5 weeks
[11] = DAY 22, 30 μg/kg Day*7 + QW sc, 3 times a day × 7 days, then 1 day/week × 4 weeks
[12] = DAY 22, 30 μg/kg/Day sc, 3 times a day × 35 days
[13] = DAY 36, 30 μg/kg BIW sc, 3 times a day, 2 days a week × 5 weeks
[14] = DAY 36, 30 μg/kg Day*7 + QW sc, 3 times a day × 7 days, then 1 day/week × 4 weeks
[15] = DAY 36, 30 μg/kg/Day sc, 3 times a day × 35 days
[16] = DAY 10, 30 μg/kg/Day sc, 3 times a day, continuous
[17] = DAY 30, 30 μg/kg/Day sc, 3 times a day, continuous
[18] = DAY 50, 30 μg/kg/Day sc, 3 times a day, continuous
[19] = DAY 60, 30 μg/kg/Day sc, 3 times a day, continuous
[20] = DAY 81, 30 μg/kg/Day sc × 60 days, then three weeks of dose reduction (15, 7.5, 3.75 μg/kg)
[21] = DAY 88, after complete withdrawal on day 81 (30 μg/kg/Day sc × 60 days + 3-week dose reduction)
[22] = DAY 102, after complete withdrawal on day 81 (30 μg/kg/Day sc × 60 days + 3-week dose reduction)
[23] = DAY 116, after complete withdrawal on day 81 (30 μg/kg/Day sc × 60 days + 3-week dose reduction)
[24] = DAY 143 (ninth week after withdrawal), after complete withdrawal on day 81

B1: NRG: fragment of the NRG-1β2 isomer, 177-237 amino acid fragment containing an EGF-like domain (SEQ ID NO: 1); developed by Zensun (protein, listed as Homo sapiens)
chain: SHLVKCAEKEKTFCVNGGECFMVKDLSNPSRYLCKCPNEFTGDRCQNYVMASFYKAEELYQ
EF value compared with the control group ([1]; 30 μg/kg/BIW sc, after 35 days): rising trend | EF value compared with the control group [1, 3]: significantly higher | LVEDd and LVEDs compared with the control group [1, 3]: significantly reduce | Cardiac function compared with the control group ([1]; 30 μg/kg/Day*7+QW sc, first 7 days of continuous administration): improved to some extent | EF [1, 4]: 50.9 ± 8.958% | LVEDd [1, 4]: 0.809 ± 0.045 cm | LVEDs [1, 4]: 0.625 ± 0.068 cm | EF [1, 5]: 50.9 ± 7.337% | LVEDd [1, 5]: 0.785 ± 0.045 cm | LVEDs [1, 5]: 0.607 ± 0.061 cm | EF [1, 6]: 52.2 ± 7.802% | LVEDd [1, 6]: 0.785 ± 0.046 cm | LVEDs [1, 6]: 0.601 ± 0.063 cm | EF [1, 7]: 48.9 ± 9.893% | LVEDd [1, 7]: 0.856 ± 0.065 cm | LVEDs [1, 7]: 0.671 ± 0.091 cm | EF [1, 8]: 47.1 ± 8.344% | LVEDd [1, 8]: 0.864 ± 0.054 cm | LVEDs [1, 8]: 0.686 ± 0.074 cm | EF [1, 9]: 50.3 ± 8.49% | LVEDd [1, 9]: 0.832 ± 0.054 cm | LVEDs [1, 9]: 0.646 ± 0.075 cm | EF [1, 10]: 47.1 ± 10.427% | LVEDd [1, 10]: 0.896 ± 0.074 cm | LVEDs [1, 10]: 0.711 ± 0.102 cm | EF [1, 11]: 44.7 ± 8.434% | LVEDd [1, 11]: 0.905 ± 0.062 cm | LVEDs [1, 11]: 0.729 ± 0.08 cm | EF [1, 12]: 49.5 ± 7.897% | LVEDd [1, 12]: 0.859 ± 0.057 cm | LVEDs [1, 12]: 0.670 ± 0.069 cm | EF [1, 13]: 45.2 ± 10.248% | LVEDd [1, 13]: 0.928±0.084 cm | LVEDs [1, 13]: 0.746 ± 0.110 cm | EF [1, 14]: 42.7±9.892% | LVEDd [1, 14]: 0.931±0.070 cm | LVEDs [1, 14]: 0.76 ± 0.097 cm | EF [1, 15]: 47.9±8.342% | LVEDd [1, 15]: 0.879±0.058 cm | LVEDs [1, 15]: 0.694±0.077 cm | LVEDd and LVEDs compared with the control group ([2]; 30 μg/kg/Day sc, 60 consecutive days): significantly reduced | EF value compared with the control group ([2]; 30 μg/kg/Day sc, after 60 days of continuous administration): increased significantly | EF [2, 16]: 50.5 ± 4.96 % | LVEDd [2, 16]: 0.821 ± 0.05 cm | LVEDs [2, 16]: 0.637 ± 0.06 cm | EF [2, 17]: 46.8 ± 6.37 % | LVEDd [2, 17]: 0.912 ± 0.06 cm | LVEDs [2, 17]: 0.725 ± 0.07 cm | EF [2, 18]: 44.4 ± 7.85 % | LVEDd [2, 18]: 0.934 ± 0.07 cm | LVEDs [2, 18]: 0.754 ± 0.09 cm | EF [2, 19]: 43.8±8.0% and 43.8 ± 8.04 % | LVEDd [2, 19]: 0.981±0.08 cm | LVEDs [2, 19]: 0.794±0.08 cm | EF [2, 20]: 42.3±11.2% | LVEDd [2, 20]: 0.981±0.08 cm and 0.981 ± 0.07 cm | LVEDs [2, 20]: 0.799±0.08 cm | EF [2, 21]: 39.3±12.7% and 39.3 ± 12.71 % | LVEDd [2, 21]: 0.994±0.08 cm | LVEDs [2, 21]: 0.826±0.10 cm | EF [2, 22]: 36.6 ± 7.69 % | LVEDd [2, 22]: 1.031 ± 0.07 cm | LVEDs [2, 22]: 0.872 ± 0.08 cm | EF [2, 23]: 33.3 ± 5.12 % | LVEDd [2, 23]: 1.054 ± 0.07 cm | LVEDs [2, 23]: 0.908 ± 0.08 cm | EF [2, 24]: 33.4±7.6% | LVEDd [2, 24]: 1.104±0.08 cm | LVEDs [2, 24]: 0.950±0.09 cm | Cardiac function, overall conclusion ([2]; a long time after withdrawal): significant improving effect on the cardiac function | EF value compared with the control group ([2]; nine weeks after withdrawal): still showed a rising trend | LVEDd and LVEDs compared with the control group ([2]; nine weeks after withdrawal): there remained a significant difference

— patent US12697371B2, “Method for preventing, treating or delaying myocardial damage using neuregulin and composition” (ZENSUN (SHANGHAI) SCIENCE & TECHNOLOGY, CO., LTD., priority 2019, dated 2026)
